Source: the domain aggregation screens of Martell et al. (2025)

Experiment: soluble fraction after stress (log2 fold change); higher = more stays soluble; pooled small domains, quantitative proteomics
Settings: stress: pH 4
Outline: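 Aggregation propensity is estimated from the fold change in each domain's soluble amount after acid stress. Pooled small-domain libraries were stressed at pH 4, and higher log2 values mean more stayed soluble.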

| Sequence | soluble fraction (log2) |
| --- | --- |
| HMSMEQAKAEEIEKLGDNAPERLQAAALFAEKFFPQDVMDAVYKITETADGVRAIEHIMQTVK | -0.37 |
| HMSMISLPNFVGKDIETVKAWAKENGITLIINKVEDSAKKDTVISQNPTNSDYSKILKGSAFTVNIAKE | 0.126 |
| HMSMRILNHTVVKILKRYRIATDEQLQPLLDEAERSGRSLQDVVLDAKLVSETELTKLFADYAD | 0.421 |
| HMSMVGNIEKILVTGESKKSSELLAGRTENNRVVNFTGEKVLIGSMVNVRIEEVFPNSLGGSYLPS | 0.0322 |
| HMSNAIDDAVEKVISENLDLAKERGLQSMGPLMGLVMKELGGTADGKAVSEALRRKISEISD | 0.114 |
| HMSNEDAYIKLRNGFLATLSEADLLLFTLREEGKTQKEIADQLGYKTHSAVSKRLQTMRGQFEGYLKTQ | -0.818 |
| HMSNEIIFNQKSITRFLMNPENNSPMIYPLELGHEMKVIKKNNDWLNVTDEKTGLNGWVISDDFGLTKPEG | -0.133 |
| HMSNETLFEFFEKNISQLTPTLVDNINRSLAVHSKKNVKLAIMIAAKSNVRNWNYISAILNRWEKE | -1.21 |
| HMSNIAQRLVLENALAKLNQEQQTIIDLRIIKGYSVAETARLLGKTESAVRTAQYRALKELAGILEED | -0.0342 |
| HMSNIIIYPNPTNDGLIHIKGSKFPFNYALYNLSGKLIETGKKNQIQLNDRGVYLLKIQTEGQTYFKKII | -0.754 |
| HMSNNILEISSNKKNMKIQENKNLVESYYSKTENLYSFKLVFKNKRDLDQFLKEVYEDDSTINYKTSS | -0.524 |
| HMSNPPLPFLAKTKVSWTGEQDGDLGFLENEVVKVFHVVDELWWQGSLSRNGAEGIFPRDFVEVISAP | -1.27 |
| HMSNSWSYSEFMKAVESGQVESVTISGQSIKGTSRGGQAFESVLPAFDDKLMDTLLVNDVEVIGEKP | -0.149 |
| HMSNTGDIIRKLREESGVTAKELAHRIGLSASQMSRLESGKRRINSEVLTRIARALEVAPSQLID | 0.17 |
| HMSNTIFGINGPVVTVASKDFSMQEMVYVGNERLVGEVISIDDDLTTIQVYEVTTGLKPGEPVVGTGSAM | -1.64 |
| HMSNVDYSQFKKDTVVEHTKFGRGIIIQTSGDGEDKIAAIAFKGLGVKRFSLAIAAASLKIIGKNDE | 0.194 |
| HMSNYFIEISKDSLARINDEIELDVLRETSDTIIISQEEKTNTISSFIKVLFERQIDILSIQNR | -1.25 |
| HMSNYYNILGVNKSSTQDEIKKAFRKKAVEHHPDKGGNEATFKKINEAYNTLSDNNKRHMYDMQQSG | 0.267 |
| HMSPDALSNLPIGSEIKFTLWDGTEKRLVKHPAAYQFSRPFWMNLNEYTYVPVNRIPKNYEVIRL | -0.0954 |
| HMSPEVEEISIDHLKAGMRILSDLRLPNGTLVAPKGSVVDAHFIKIVENYVISYFGNPFPDRIKVIM | 0.144 |
| HMSPEWTPAEQDAIDKASEGEYGEALQRVLSGDYEPMDIPDALWGVQQVADKDTYSSIQKKIADIGN | 0.422 |
| HMSPIPLPVERAIHKLGSDISLARRRRHISQASLAERMGASLSTVRRMEKGDVRVPIHFFARALHVFG | 0.158 |
| HMSPIQLKYNEYLIYIDEGKINTAEIHGNKITGKLKEGSEYVVTIYPELIASITEKLAENNVQTQLIQ | -0.466 |
| HMSPLPDRESLGAIEKLISLLGSSEWTVREKATRELGAFGYLARPVLQRELATSGDPEVSRRLERILSNL | -0.00724 |
| HMSPLTPEEAEVLRILGDHGDMTVDNIATEGKMSAAAVLRVLGVLSAYGLAVPSGPGRWGSRAA | 0.152 |

| Sequence | soluble fraction (log2) |
| --- | --- |
| HMSPPPRPSHPEAAGLRHLAFEVDNIDDAVRHLDRLGVPHEPVRTDEYTGRRFLFFTDPDRLPLELYEK | -0.572 |
| HMSPQIDYFDDEELDVYRQIAPEAYTDEQIEVFRDILYTLRPEEVEEWLISLEKREINLPLILRQEAIELI | 0.156 |
| HMSPRQVTAVRSGSPMPVLPGEDWRLYDASGALVARGSGAAPIPKSTGLLRLNSEGLDGLADRWIWVL | -0.154 |
| HMSPSRRENLTAAAKEYFVNTQIRHKTFGNGVIIKRSGNIAAIRFDNGTIKQIDLIAALQAKVLSIL | -0.512 |
| HMSPSTNKTFSFSKENISIGQTVFIKKLNQNATVLTLPNKSNQLQVQFGVITMNVKLEDLALPTN | -0.0832 |
| HMSPTSSRAAQARIRKMIESESPLKPISDSQLAARLGEEGISIARRTVAKYREQMNILPASQRRGV | -0.0284 |
| HMSPVPRIEIELTSSKEDGSWTWRAVGAREPRGSLDGALLAKPAAVGDVLRVETDQFLDGMTVTAILPPRD | -0.6 |
| HMSQAVEISSVKTQIDGKSYYLHTIKQGQTLYGISKAYGVSVEELTTVNPETSKGLKVGQIIKVPDTKT | -0.303 |
| HMSQDLVVLGDSMLNNALKAFHIDPNAIKKKYWDKLILDYHLKSKEEVLTEIALGKKINVMVAHQLTSIMD | -0.238 |
| HMSQEILSNQSIKDMIELGFEEQTIIDKIQTSTSDFDTTIEELKALKQLGASPTILSAMIKSIKK | -1.97 |
| HMSQLDITEARIVVSGGLGMQGPENFKLLEELAKVLGGAVGASRPVVDNGWREYSNQVGQTGKIVAPELYV | -0.751 |
| HMSQLETEEAKRIVLKDLLRLYNNYNIIELEEDEFDRFITYLNMPYDFLQKTSDYDLAVSIKRMYASY | -1.79 |
| HMSQNISSTKLIPENIKIGMSVFVIPLQQKGIVQSLPNRSKEVLVQIGNAKINVKINNLKLIED | -0.238 |
| HMSQNTHTIPSREDILGIFRSVNAPLDPQSLGKTLQVHADSMDVLVRRLKAMERDGQLKSDASGVFSLAD | 0.314 |
| HMSQNVQDVFLNHVRKSKNPVTVFLVNGVKLQGIITWFDNFSVLLRREGHTQLVYKHAISTVMPSGPIQLF | 0.22 |
| HMSQPALSYAFAKAQGVIVTALGDVAEVARRKGSQPQALAEVRRIAGRPLALREVDDAAFDRLLQDHYARS | -0.0203 |
| HMSQQMSYSDFVKAVSARQIREAQIQGDKIYATDSTGNRLTIIRLDNDQRLVDDMINNDVNIIGLEE | -0.534 |
| HMSQSDLASAIGARVTIRLREASGGFRDIVGVLQRFGSGYGELINSKGEALTFSESEIAIWREVKA | 0.361 |
| HMSQTELIIVEEEMDGERLDAFLAEQVEQLSRSAVKNLINEGQVLVNGAKQKASYHVREGDEISIEIPEPQ | -0.455 |
| HMSQTPDLQQERANLGDNADARIEAVDLWANKFFPEEHADAILQIGQTAKGIEALEFIMSKV | -0.345 |
| HMSQVLVRINQDLNIRSGPGAQYDIIAVYRSGAIASVIGTYNNWYKVNFELDSKSYTGWINGTFTSR | -0.245 |
| HMSQYELEDVEKQRLKFKNGDEKALWLLSDIYKDNSQSYEVRLAALRALSESRHPLIIFDIQSSVK | -0.898 |
| HMSRAAQRLFMSQPPLSRHIRQLEDRLGVTLFVRHTRGLTLTEDGQRVLEMVRPLLDLQDKTYAALSQLT | ≥ 0.43 |
| HMSREMIKSELESISGLGKSGIEKLYTHFINIENIKSASLENIRNIPGISYKVADNIYKHFH | 0.385 |
| HMSRLGINTTIEDIKMVGKIIMPLLKQGQSVYQILASHPEIPYSEKTLYSYIEDNIFKDAGIDISVFDL | -0.491 |

| Sequence | soluble fraction (log2) |
| --- | --- |
| HMSRLLERARDLMAKPGAWLSAEGGAYALRLSPDRRSRISLTLTETEFRALIDQPGLRVRPGGGWSGRA | -0.484 |
| HMSRMGDSIKSLRSRNNMSQDALAEKLNVTRQAISNWENSKTQPDADTLKNLGIIFNVTVDEIINNDF | -0.587 |
| HMSRQREWIYDYIQSHPDRHMSVEEIYEGLKAENREVSVATVYRNLKILQDENRIASLMLESGKQVFDK | -0.0969 |
| HMSRREEALIALAQRVARQVARTKQPVTLEPMPANERRVIHVALRDNPDVETRSSGEGDQRRVTVYPRQ | 0.202 |
| HMSRRIEIELTSSRPDGSWTWRAAGAREPKGVLDGTLLSQGSKPGDVVKAEAEFDIDGITIVSITQ | 0.0267 |
| HMSRSKLNRLDKIKKMLIAQTGISIKEFSASLNVSEITIRRDLNLLEEQGFIRLVNGVAIYRM | -0.315 |
| HMSRSLEIDVLVKALLEQDRRKFMLVTDGTADVTVRYNNALPSLFREGQGVVAEGLMDNGKFIATNVLAK | -0.793 |
| HMSRSLLAALEKLRESHTGSLPASVLSSAQRRSLESFAQTTKSVQMRPSGRGVVFAIINPEVVDKHWRELS | 0.22 |
| HMSRSSQMVNFIRLLSQEKKVSVNSIFSSSVQLSDGIIVKINDFYYRVNLSLDQKTYSLVEVS | 0.12 |
| HMSRVKQERLNRFVEAFEAYFRSVHPGEIDVEYLKSDEFGDIFESILHRVMHTASEEKMHRFKKILLNEM | -1.39 |
| HMSSADIPFSRFIDDVEAQRVEKVTIDGVNVTGRYRSDGAAFKTIIPSQYDGLVPILRQNKVDITVKDA | 0.41 |
| HMSSAMDMISRDVRNADSISISTTTYSKKIDLYNFDRNGDIEELHSYSAKNDLGILYNDEPI | 0.191 |
| HMSSANIKLDPLERQATQQIINNIKRKYPNATIENLQEVANDAIATMRQPEFSNYTVDKFVSYFLSM | -0.429 |
| HMSSARKVTVRGVRELPGIFMEKAEILDDGVRFFYRGEMEKLIGALQGLPIRDLTITEPDLEEVFLHFY | -1.43 |
| HMSSASETQYELALQAMRDGDNDAALRSLSTALASGFSDWQRIDEEPLLAALANDVRFQVLRSRWK | -0.92 |
| HMSSDLVDYLVKYVAIVDNQEIEIADSKIGTAELGTTVSEVAKTVGNYYPKATVLSVKITGRNQEIVFEY | -1.8 |
| HMSSEPYISLPRGAAHDAYPLSTKAVAAQLGMSEVWLANLRSKGKGPRYVRVGTRVFYSPEDVAQWRRAT | ≥ 0.43 |
| HMSSESIIIKKLIEEFIHNENKYSPLSDEKLSYLLKNKGFSVARRTVAKYRDELGILSTRERKIKI | 0.393 |
| HMSSEYARFFSGNYYEVLGVAKNASYDEIKAAWKKLVKEYHPDLHPQRQEEFTKIIQKINEAYEYFKKMH | -0.201 |
| HMSSFFLIDVSQVRIGMYIQLDVGWMRHPFPVNSFRITNQEQLDTLRSLNLAQVRWSPAKSDL | -1 |
| HMSSFIEAIKQSGTDSLDVIMKNGRVYRYVGIDADRLGYLLEPHQQKLSLEESIGRFYIDYIKGIYEAIE | -1.05 |
| HMSSGNLESLLNKLHNEDYFVRLDAVKALGALGDPGAIDYLIEMLSENGIMRGWVANSLAALGEAQWKKII | -1.44 |
| HMSSHSAEAVRHRIKSMIDHEARDGDVLSDDRIVELLNQAGIDIARRTVAKYREALRIPSSVERKRRLKA | 0.0173 |
| HMSSKRDQFIVLGQEILEKMFKNEGLEFSEKGLLAVMPNFEAESINDIYAKVGEGLISGWDVMKAVYPAY | -0.841 |
| HMSSKSLAALSPQEYRLLPLVAEGKTNKEIASALALSDKTVKNYLANIFSKLGITRRTQAATLYARAL | 0.252 |
